First the molecules themselves.
B1: Cytoplasmic polyadenylation element-binding protein 2, residues 513 to 575; numbered along this chain, Q7Z5Q1 (parent)
chain: KRVEVKPYVLDDQMCDECQGARCGGKFAPFFCANVTCLQYYCEFCWANIHSRAGREFHKPLVK

± gives the uncertainty stated by the source.

Variants of B1 are the subject of this data set. The experiment in a line: abundance fitness (aPCA) (normalised: wild type 0, dead -1); higher = more abundant; growth selection in yeast, the domain comes from the species named. The conditions noted are these: Homo sapiens.
On to KRVEVKPYVLDDQMCDECQGARCGGKFAPFFCANVTCLPYYCEFCWANIHSRAGREFHKPLVK [Q39P], for which the abundance fitness was -0.799 ± 0.091.

Consider KRVEVKPYVLDDQMCDECQGARCGGKFAPFFCANVTCLYYYCEFCWANIHSRAGREFHKPLVK [Q39Y], for which the abundance fitness is -0.369 ± 0.1.

Take KRVEVKPYVLDDQMCDECQGARCGGKFAPFFCANVTCLAYYCEFCWANIHSRAGREFHKPLVK [Q39A]: the abundance fitness stood at 0.1 ± 0.04.

In the case of KRVEVKPYVLDDQMCDECQGARCGGKFAPFFCANVTCLGYYCEFCWANIHSRAGREFHKPLVK [Q39G], the abundance fitness turned out to be 0.024 ± 0.051.

Regarding KRVEVKPYVLDDQMCDECQGARCGGKFAPFFCANVTCLKYYCEFCWANIHSRAGREFHKPLVK [Q39K], the abundance fitness turned out to be 0.201 ± 0.061.

As for KRVEVKPYVLDDQMCDECQGARCGGKFAPFFCANVTCLLYYCEFCWANIHSRAGREFHKPLVK [Q39L], the abundance fitness is -0.175 ± 0.047.

As for KRVEVKPYVLDDQMCDECQGARCGGKFAPFFCANVCCLQYYCEFCWANIHSRAGREFHKPLVK [T36C], the abundance fitness was -0.201 ± 0.12.

Consider KRVEVKPYVLDDQMCDECQGARCGGKFAPFFCANVDCLQYYCEFCWANIHSRAGREFHKPLVK [T36D], for which the abundance fitness worked out at 0.108 ± 0.077.

For the variant KRVEVKPYVLDDQMCDECQGARCGGKFAPFFCANVHCLQYYCEFCWANIHSRAGREFHKPLVK [T36H], the abundance fitness is -0.061 ± 0.05.

For KRVEVKPYVLDDQMCDECQGARCGGKFAPFFCANVRCLQYYCEFCWANIHSRAGREFHKPLVK [T36R], the abundance fitness was -0.151 ± 0.042.

With KRVEVKPYVLDDQMCDECQGARCGGKFAPFFCANVSCLQYYCEFCWANIHSRAGREFHKPLVK [T36S], the abundance fitness is -0.011 ± 0.041.

Turning to KRVEVKPYVLDDQMCDECQGARCGGKFAPFFCANVYCLQYYCEFCWANIHSRAGREFHKPLVK [T36Y], the abundance fitness is -0.153 ± 0.069.

With KRVEVKPYVLDDQMCDECQGARCGGKFAPFFCANVVCLQYYCEFCWANIHSRAGREFHKPLVK [T36V], the abundance fitness was -0.106 ± 0.053.

On to KRVEVKPYVLDDQMCDECQGARCGGKFAPFFCANVICLQYYCEFCWANIHSRAGREFHKPLVK [T36I], for which the abundance fitness is -0.09 ± 0.062.

KRVEVKPYVLDDQMCDECQGARCGGKFAPFFCANVMCLQYYCEFCWANIHSRAGREFHKPLVK [T36M]: the abundance fitness was -0.095 ± 0.062.

With KRVEVKPYVLDDQMCDECQGARCGGKFAPFFCANVLCLQYYCEFCWANIHSRAGREFHKPLVK [T36L], the abundance fitness was -0.121 ± 0.035.

For the variant KRVEVKPYVLDDQMCDECQGARCGGKFAPFFCANVGCLQYYCEFCWANIHSRAGREFHKPLVK [T36G], the abundance fitness came to 0.073 ± 0.036.

For the variant KRVEVKPYVLDDQMCDECQGARCGGKFAPFFCANVPCLQYYCEFCWANIHSRAGREFHKPLVK [T36P], the abundance fitness is -0.054 ± 0.048.

As to KRVEVKPYVLDDQMCDECQGARCGGKFAPFFCANVWCLQYYCEFCWANIHSRAGREFHKPLVK [T36W], the abundance fitness was -0.328 ± 0.055.

In the case of KRVEVKPYVLDDQMCDECQGARCGGKFAPFFCANVECLQYYCEFCWANIHSRAGREFHKPLVK [T36E], the abundance fitness is 0.108 ± 0.037.

With KRVEVKPYVLDDQMCDECQGARCGGKFAPFFCANVFCLQYYCEFCWANIHSRAGREFHKPLVK [T36F], the abundance fitness is -0.312 ± 0.11.

With KRVEVKPYVLDDQMCDECQGARCGGKFAPFFCANVNCLQYYCEFCWANIHSRAGREFHKPLVK [T36N], the abundance fitness was -0.024 ± 0.057.

Regarding KRVEVKPYVLDDQMCDECQGARCGGKFAPFFCANVKCLQYYCEFCWANIHSRAGREFHKPLVK [T36K], the abundance fitness was -0.027 ± 0.045.

KRVEVKPYVLDDQMCDECQGARCGGKFAPFFCANVACLQYYCEFCWANIHSRAGREFHKPLVK [T36A]: the abundance fitness is 0.007 ± 0.045.

For KRVEVKPYVLDDQMCDECQGARCGGKFAPFFCANVQCLQYYCEFCWANIHSRAGREFHKPLVK [T36Q], the abundance fitness was -0.058 ± 0.052.

As to KRVEVKPYVLDDQMCDECQGARCGGKFAPFFCANVTCFQYYCEFCWANIHSRAGREFHKPLVK [L38F], the abundance fitness is -0.076 ± 0.072.

Turning to KRVEVKPYVLDDQMCDECQGARCGGKFAPFFCANVTCIQYYCEFCWANIHSRAGREFHKPLVK [L38I], the abundance fitness was -0.115 ± 0.072.

Turning to KRVEVKPYVLDDQMCDECQGARCGGKFAPFFCANVTCTQYYCEFCWANIHSRAGREFHKPLVK [L38T], the abundance fitness is -0.072 ± 0.059.

For the variant KRVEVKPYVLDDQMCDECQGARCGGKFAPFFCANVTCKQYYCEFCWANIHSRAGREFHKPLVK [L38K], the abundance fitness turned out to be 0.202 ± 0.062.

For KRVEVKPYVLDDQMCDECQGARCGGKFAPFFCANVTCAQYYCEFCWANIHSRAGREFHKPLVK [L38A], the abundance fitness was 0.044 ± 0.043.

KRVEVKPYVLDDQMCDECQGARCGGKFAPFFCANVTCDQYYCEFCWANIHSRAGREFHKPLVK [L38D]: the abundance fitness is -0.054 ± 0.052.

For the variant KRVEVKPYVLDDQMCDECQGARCGGKFAPFFCANVTCYQYYCEFCWANIHSRAGREFHKPLVK [L38Y], the abundance fitness was 0.174 ± 0.077.

Turning to KRVEVKPYVLDDQMCDECQGARCGGKFAPFFCANVTCGQYYCEFCWANIHSRAGREFHKPLVK [L38G], the abundance fitness is -0.006 ± 0.039.

For the variant KRVEVKPYVLDDQMCDECQGARCGGKFAPFFCANVTCVQYYCEFCWANIHSRAGREFHKPLVK [L38V], the abundance fitness is -0.094 ± 0.038.

KRVEVKPYVLDDQMCDECQGARCGGKFAPFFCANVTCRQYYCEFCWANIHSRAGREFHKPLVK [L38R]: the abundance fitness came out at 0.056 ± 0.041.

On to KRVEVKPYVLDDQMCDECQGARCGGKFAPFFCANVTCPQYYCEFCWANIHSRAGREFHKPLVK [L38P], for which the abundance fitness was -0.706 ± 0.087.

Turning to KRVEVKPYVLDDQMCDECQGARCGGKFAPFFCANVTCCQYYCEFCWANIHSRAGREFHKPLVK [L38C], the abundance fitness came out at 0.064 ± 0.058.

For the variant KRVEVKPYVLDDQMCDECQGARCGGKFAPFFCANVTCWQYYCEFCWANIHSRAGREFHKPLVK [L38W], the abundance fitness was 0.022 ± 0.046.

On to KRVEVKPYVLDDQMCDECQGARCGGKFAPFFCANVTCSQYYCEFCWANIHSRAGREFHKPLVK [L38S], for which the abundance fitness was determined as 0.009 ± 0.052.

Take KRVEVKPYVLDDQMCDECQGARCGGKFAPFFCANVTCHQYYCEFCWANIHSRAGREFHKPLVK [L38H]: the abundance fitness is 0.029 ± 0.098.

In the case of KRVEVKPYVLDDQMCDECQGARCGGKFAPFFCANVTCNQYYCEFCWANIHSRAGREFHKPLVK [L38N], the abundance fitness is 0.219 ± 0.071.

KRVEVKPYVLDDQMCDECQGARCGGKFAPFFCANVTCMQYYCEFCWANIHSRAGREFHKPLVK [L38M]: the abundance fitness came to 0.123 ± 0.064.

For the variant KRVEVKPYVLDDQMCDECQGARCGGKFAPFFCANVTCEQYYCEFCWANIHSRAGREFHKPLVK [L38E], the abundance fitness amounted to 0.077 ± 0.053.

The record behind these values is the Human Domainome abundance scans (Beltran et al. 2025).
